{"source": "patent US20210333272A1", "origin": "cited, not measured here", "test_system": "CD63 fragment", "conditions": "CITED BasePair Biotechnologies CD63 aptamer data sheet; cited from earlier work"}
{"substance": "BasePair CD63 aptamer (ATW0056)", "values": [{"measurement": "Kd", "result": 17.1, "unit": "nM"}]}
